The results in this text go back to publication PMC3600089 (ACS chemical biology, 2012).

To fix the notation:
B1: untagged ARNT PAS-B (domain or fragment)
chain: not shown
B2: GST-TACC3-CT (murine TACC3 residues 561-631) (domain or fragment)
chain: not shown
B3: GST-TACC3-CT E629A (domain or fragment)
chain: not shown

The target of the assay “GST-TACC3-CT E629A” is B3. Description: AlphaScreen or HTRF. A general note: Bead proximity is the source of the signal in Alpha formats.
The target of assay [1] is His-ARNT2 PAS-B (human ARNT2 residues 330-444) (human, UniProt Q9HBZ2 330-444). The assay can be described thus: pull-down.
The next assay deals with ARNT2 PAS-B E372A (human, UniProt Q9HBZ2 330-444, E372A). Description: pull-down.
In assay [2] the target is T1, His-ARNT PAS-B (human ARNT residues 356-470) (human, UniProt P27540 356-470). Description: pull-down.
The target in a further assay is ARNT2 PAS-B K391A (human, UniProt Q9HBZ2 330-444, K391A). The assay can be described thus: pull-down.
In assay [3] the target is T1, His-ARNT PAS-B (human ARNT residues …). The assay can be described thus: AlphaScreen or HTRF.

As to B1, the IC50 (usually the concentration at which inhibition is half-maximal) with GST-TACC3-CT E629A was 2000 to 3000 nM.

Take B2: the binding result (in assay [1]; with ARNT2 PAS-B E372A; in assay [2]; in the assay with ARNT2 PAS-B K391A) was “binds” throughout.

Take B3: the binding result in assay [3] is on record as “binds”.
